Screen value data for 2 variants are collected here from publication PMC5605669 (2017).

Sequences and labels used below:
B1: APOBEC3G, wild type [human] / itself (parent complex)
chain: MKPHFRNTVERMYRDTFSYNFYNRPILSRRNTVWLCYEVKTKGPSRPPLDAKIFRGQVYSELKYHPEMRFFHWFSKWRKLHRDQEYEVTWYISWSPCTKCTRDMATFLAEDPKVTLTIFVARLYYFWDPDYQEALRSLCQKRDGPRATMKIMNYDEFQHCWSKFVYSQRELFEPWNNLPKYYILLHIMLGEILRHSMDPPTFTFNFNNEPWVRGRHETYLCYEVERMHNDTWVLLNQRRGFLCNQAPHKHGFLEGRHAELCFLDVIPFWKLDLDQDYRVTCFTSWSPCFSCAQEMAKFISKNKHVSLCIFTARIYDDQGRCQEGLRTLAEAGAKISIMTYSEFKHCWDTFVDHQGCPFQPWDGLDEHSQDLSGRLRAILQNQEN

In the experiment the parent is B1. The experiment in a line: single-molecule ssDNA binding curves fit with two-step binding model (k2 from k slow); parent: 0.007; read off a plot.
As for chain 1 I314A, chain 1 Y315A, the screen value was roughly 0.0066 s⁻¹.

On to chain 1 R313A, chain 1 D316A, chain 1 D317A, chain 1 Q318A, for which the screen value was roughly 0.0057 s⁻¹.
